Patent publication US20250191685

Test system: KLF6 RTF CDKN1C #200, 8 phosphate-contact R to Q 8 phosphate-contacting Arg to Gln (Homo sapiens)
Assay: cell_activity
Conditions: on-target activity reduced by only 12%; only CDKN1C upregulated in RNA-seq

CDKN1C promoter site #200
binding signal (% of unmodified): 88
